Results as given in patent US20250215403A1, “Compositions and Methods for Cardiac Tissue Regeneration” (Temple University - Of The Commonwealth System Of Higher …, priority 2022, published 2025).

What was measured:
[1] = system: serine synthesis pathway (SSP); test: Serine and glycine levels in mouse heart post-MI; type: in vivo; conditions: two days post-MI; HPLC study; vs Luc modRNA
cardiomyocytes (CM) = test: DNA damage response immunostaining (8-OHG, pATM) in CMs post-MI; type: in vivo, mouse; conditions: two days post-MI; compared to Luc
Method: Mice hearts were harvested, weighed, and fixed in 4% PFA/PBS overnight on shaker and then washed with PBS for 1 hour and incubated in 30% sucrose/PBS at 4° C. for 12-18 hours. Hearts were then fixed in OCT and frozen at −80° C. (Magadum A., et al., Circulation. 2020, 141 (15): 1249-1265). Transverse heart sections (6-8 μm) were made using a cryostat. Frozen sections were rehydrated in PBS for 5-10 min followed by permeabilization with PBS with 0.1% Triton™ X100 (PBST) for 7-8 min. Heart sections were then treated with 3% H2O2 for 5 min and washed (3×5 min) with PBST. The samples were then blocked with PBS+10% Donkey normal serum+0.1% Triton™ X100 (PBSST) for 1 hour at room temperature. Primary antibodies (see complete list of primary antibodies used for this Example in Table 2 below) diluted in PBST were added and incubated overnight at 4° C. […] For immunostaining with wheat germ agglutinin (WGA) for CM size quantification, images were captured at 40× magnification, and ImageJ was used to determine the area of each cell. Quantitative analyses involved counting of multiple fields from 5-8 mouse hearts per group, and 3-4 sections/heart (˜50 cells per field assessed, for a total ˜250 cells per sample). […] BrdU positive CMs were counted in multiple fields from three independent samples per group and 3 sections/heart. The total number of CMs counted was ˜1-1.5×10^3 CMs per section. […]

GSK3β = test: Western blot of Ser9 phosphorylation of GSK3β in NRVM; type: cell-based, rat; conditions: compared to Luc modRNA
Method: Total protein was isolated from the respective cells or tissues at given time points. In brief, equal amounts of protein were resolved by SDS-PAG Electrophoresis system in 4%-15% Mini-PROTEAN TGX stain-free gels (Bio-Rad) and blotted onto nitrocellulose membranes (Bio-Rad). The membranes were blocked in Intercept® (TBS) blocking buffer (LI-COR) diluted 1:1 with PBS for 1 hour at room temperature and washed with PBST (1% Tween® 20, pH 7.4) for 10 min. Primary antibodies diluted in blocking buffer were added and incubated overnight at 4° C. Anti-PSAT1 (1:1,000, Invitrogen, #PA5-22124), anti-Flotillin 1 (1:1,000, Cell Signaling, #3253), anti-pSer9GSK3B (1:1,000, Cell Signaling, #9336), anti-GSK3B (1:1,000, Cell Signaling, #9315), and anti-β-actin (1:1000, Santa Cruz, #sc-47778) antibodies were used. The next day, membranes were washed with PBST (3×10 min). Anti-rabbit and anti-mouse IRDye 800CW secondary antibodies (LI-COR) were applied for 1 hr at room temperature. The membranes were washed with PBST (3×10 min) and antigen or antibody complexes were visualized and quantified using Odyssey Fc Imaging System (LI-COR Biosciences, model number 2800).

B1: PSAT1 modRNA: modified mRNA with N1-methylpseudouridine, transcribed in vitro, encoding phosphoserine aminotransferase 1 (ORF SEQ ID NO: 1, RNA SEQ ID NO: 2) (nucleic acid)
chain: AUGGAAGCCACCAAGCAAGUGGUUAACUUUGGGCCCGGGCCUGCCAAGCUGCCACACUCGGUAUUGUUGGAGAUCCAGAAGCAGCUACUAGACUACAGAGGACUCGGCAUCAGUGUGCUCGAAAUGAGUCACAGGUCAUCAGAUUUUGCCAAGAUUAUUGGCAAUACAGAGAAUCUUGUGAGGGAAUUGCUAGCUGUUCCCAACAACUACAAGGUGAUCUUUGUACAAGGAGGUGGGUCUGGCCAGUUCAGUGCUGUCCCCUUAAAUCUGAUUGGCCUGAAAGCUGGAAGGAGUGCUGACUACGUGGUGACCGGAGCUUGGUCAGCUAAGGCUGCGGAAGAAGCCAAGAAGUUUGGAACGGUGAACAUUGUCCACCCUAAACUUGGAAGUUACACAAAAAUUCCAGACCCAAGCACCUGGAACCUCAACCCGGACGCCUCCUAUGUAUACUUCUGUGCAAACGAGACUGUGCACGGGGUGGAGUUUGACUUCGUACCUGACGUCAAGGGAGCGGUGCUGGUCUGUGACAUGUCCUCAAACUUCUUAUCCAGGCCGGUGGAUGUUUCCAAGUUUGGUGUGAUUUUCGCUGGUGCUCAGAAGAAUGUUGGCUCUGCCGGGGUGACGGUGGUGAUUGUCCGGGAUGACCUGCUGGGGUUCUCGCUCAGAGAGUGCCCAUCAGUCCUUGACUACAAAGUGCAGGCUGGGAACAACUCUUUGUAUAACACACCUCCGUGCUUCAGCAUCUACGUCAUGGGCAUGGUCCUGGAAUGGAUCAAGAACAACGGCGGGGCCGCAGCCAUGGAGAAGCUCAGCUCCAUCAAAUCCCAAAUGAUUUAUGAGAUCAUUGAUAAUUCUCAAGGAUUUUAUGUAUGCCCAGUGGAGCGCCAGAAUAGAAGCAGGAUGAACAUCCCAUUUCGCAUUGGCAACGCCAAAGGAGACGAAGCUUUGGAAAAGCGGUUUCUUGACAAGGCGGUAGAACUCAACAUGAUCUCCUUGAAGGGGCACAGGUCAGUGGGAGGCAUUCGUGCCUCUCUGUAUAACGCUGUCACAACCGAAGACGUUGAGAAGCUGGCGGCCUUCAUGAAGAAUUUCUUGGAGAUGCAUCAGCUGUGA
modifications: N1-methylpseudouridine
With B1 the “glycine levels in heart” value [1] was “increase”, the “serine levels in heart” value [1] was “increase” and the “staining for nuclear 8-OHG (nuclear foci per CMs)” value (cardiomyocytes (CM)) was “significantly lower”. For the same molecule, the “staining for pATM (nuclear foci per CMs)” value (cardiomyocytes (CM)) was “significantly lower” and the “phosphorylation of GSK3β at Ser9” value (GSK3β) was “induces”.
